From the Human Domainome abundance scans (Beltran et al. 2025)
± gives the uncertainty stated by the source.

B1: Spectrin alpha chain, erythrocytic 1, residues 979 to 1036; numbered along this chain, P02549 (parent)
chain: EQRVMALYDFQARSPREVTMKKGDVLTLLSSINKDWWKVEAADHQGIVPAVYVRRLAH

Variants of: B1
Experiment: abundance fitness (aPCA) (normalised: wild type 0, dead -1); higher = more abundant; growth selection in yeast, the domain comes from the species named
Conditions: Homo sapiens

Variant	abundance fitness
EQRVMALYDFQARSPREVTMKKGDVLTLLSSINKDWWKVEAADHQGLVPAVYVRRLAH [I47L]	0.065 ± 0.13
EQRVMALYDFQARSPREVTMKKGDVLTLLSSINKDWWKVEAADHQGMVPAVYVRRLAH [I47M]	0.561 ± 0.11
EQRVMALYDFQARSPREVTMKKGDVLTLLSSINKDWWKVEAADHQGNVPAVYVRRLAH [I47N]	-0.25 ± 0.18
EQRVMALYDFQARSPREVTMKKGDVLTLLSSINKDWWKVEAADHQGSVPAVYVRRLAH [I47S]	-0.659 ± 0.23
EQRVMALYDFQARSPREVTMKKGDVLTLLSSINKDWWKVEAADHQGTVPAVYVRRLAH [I47T]	-0.701 ± 0.42
EQRVMALYDFQARSPREVTMKKGDVLTLLSSINKDWWKVEAADHQGVVPAVYVRRLAH [I47V]	0.228 ± 0.16
EQRVMALYDFQARSPREVTMKKGDVLTLLSSINKDWWKVEAADHQGWVPAVYVRRLAH [I47W]	0.461 ± 0.15
EQRVMALYDFQARSPREVTMKKGDVLTLLSSINKDWWKVEAADHQGYVPAVYVRRLAH [I47Y]	0.304 ± 0.23
EQRVMALYDFQARSPREVTMKKGDVLTLLSSINKDWWKVEAADHQGIAPAVYVRRLAH [V48A]	-0.687 ± 0.17
EQRVMALYDFQARSPREVTMKKGDVLTLLSSINKDWWKVEAADHQGICPAVYVRRLAH [V48C]	-0.502 ± 0.29
EQRVMALYDFQARSPREVTMKKGDVLTLLSSINKDWWKVEAADHQGIGPAVYVRRLAH [V48G]	-1.09 ± 0.33
EQRVMALYDFQARSPREVTMKKGDVLTLLSSINKDWWKVEAADHQGIKPAVYVRRLAH [V48K]	-0.56 ± 0.11
EQRVMALYDFQARSPREVTMKKGDVLTLLSSINKDWWKVEAADHQGILPAVYVRRLAH [V48L]	-0.717 ± 0.19
EQRVMALYDFQARSPREVTMKKGDVLTLLSSINKDWWKVEAADHQGIMPAVYVRRLAH [V48M]	-0.556 ± 0.36
EQRVMALYDFQARSPREVTMKKGDVLTLLSSINKDWWKVEAADHQGIQPAVYVRRLAH [V48Q]	-0.656 ± 0.12
EQRVMALYDFQARSPREVTMKKGDVLTLLSSINKDWWKVEAADHQGIRPAVYVRRLAH [V48R]	-0.551 ± 0.19
EQRVMALYDFQARSPREVTMKKGDVLTLLSSINKDWWKVEAADHQGITPAVYVRRLAH [V48T]	-0.727 ± 0.17
EQRVMALYDFQARSPREVTMKKGDVLTLLSSINKDWWKVEAADHQGIWPAVYVRRLAH [V48W]	-0.809 ± 0.29
EQRVMALYDFQARSPREVTMKKGDVLTLLSSINKDWWKVEAADHQGIVAAVYVRRLAH [P49A]	-0.932 ± 0.38
EQRVMALYDFQARSPREVTMKKGDVLTLLSSINKDWWKVEAADHQGIVEAVYVRRLAH [P49E]	-0.854 ± 0.18
EQRVMALYDFQARSPREVTMKKGDVLTLLSSINKDWWKVEAADHQGIVGAVYVRRLAH [P49G]	-0.44 ± 0.25
EQRVMALYDFQARSPREVTMKKGDVLTLLSSINKDWWKVEAADHQGIVKAVYVRRLAH [P49K]	-0.47 ± 0.42
EQRVMALYDFQARSPREVTMKKGDVLTLLSSINKDWWKVEAADHQGIVLAVYVRRLAH [P49L]	-0.887 ± 0.36

Variant	abundance fitness
EQRVMALYDFQARSPREVTMKKGDVLTLLSSINKDWWKVEAADHQGIVNAVYVRRLAH [P49N]	-0.694 ± 0.14
EQRVMALYDFQARSPREVTMKKGDVLTLLSSINKDWWKVEAADHQGIVQAVYVRRLAH [P49Q]	-0.898 ± 0.21
EQRVMALYDFQARSPREVTMKKGDVLTLLSSINKDWWKVEAADHQGIVSAVYVRRLAH [P49S]	-0.497 ± 0.42
EQRVMALYDFQARSPREVTMKKGDVLTLLSSINKDWWKVEAADHQGIVTAVYVRRLAH [P49T]	-0.477 ± 0.37
EQRVMALYDFQARSPREVTMKKGDVLTLLSSINKDWWKVEAADHQGIVVAVYVRRLAH [P49V]	-0.797 ± 0.36
EQRVMALYDFQARSPREVTMKKGDVLTLLSSINKDWWKVEAADHQGIVWAVYVRRLAH [P49W]	-0.792 ± 0.41
EQRVMALYDFQARSPREVTMKKGDVLTLLSSINKDWWKVEAADHQGIVYAVYVRRLAH [P49Y]	-0.72 ± 0.36
EQRVMALYDFQARSPREVTMKKGDVLTLLSSINKDWWKVEAADHQGIVPCVYVRRLAH [A50C]	-0.512 ± 0.3
EQRVMALYDFQARSPREVTMKKGDVLTLLSSINKDWWKVEAADHQGIVPDVYVRRLAH [A50D]	-0.872 ± 0.22
EQRVMALYDFQARSPREVTMKKGDVLTLLSSINKDWWKVEAADHQGIVPGVYVRRLAH [A50G]	-0.967 ± 0.19
EQRVMALYDFQARSPREVTMKKGDVLTLLSSINKDWWKVEAADHQGIVPLVYVRRLAH [A50L]	-0.844 ± 0.2
EQRVMALYDFQARSPREVTMKKGDVLTLLSSINKDWWKVEAADHQGIVPMVYVRRLAH [A50M]	-0.823 ± 0.2
EQRVMALYDFQARSPREVTMKKGDVLTLLSSINKDWWKVEAADHQGIVPPVYVRRLAH [A50P]	-0.847 ± 0.4
EQRVMALYDFQARSPREVTMKKGDVLTLLSSINKDWWKVEAADHQGIVPRVYVRRLAH [A50R]	0.04 ± 0.12
EQRVMALYDFQARSPREVTMKKGDVLTLLSSINKDWWKVEAADHQGIVPSVYVRRLAH [A50S]	0.011 ± 0.087
EQRVMALYDFQARSPREVTMKKGDVLTLLSSINKDWWKVEAADHQGIVPVVYVRRLAH [A50V]	-0.79 ± 0.29
EQRVMALYDFQARSPREVTMKKGDVLTLLSSINKDWWKVEAADHQGIVPWVYVRRLAH [A50W]	-0.879 ± 0.23
EQRVMALYDFQARSPREVTMKKGDVLTLLSSINKDWWKVEAADHQGIVPAAYVRRLAH [V51A]	0.616 ± 0.075
EQRVMALYDFQARSPREVTMKKGDVLTLLSSINKDWWKVEAADHQGIVPADYVRRLAH [V51D]	0.148 ± 0.26
EQRVMALYDFQARSPREVTMKKGDVLTLLSSINKDWWKVEAADHQGIVPAEYVRRLAH [V51E]	-0.31 ± 0.24
EQRVMALYDFQARSPREVTMKKGDVLTLLSSINKDWWKVEAADHQGIVPAFYVRRLAH [V51F]	0.246 ± 0.26
EQRVMALYDFQARSPREVTMKKGDVLTLLSSINKDWWKVEAADHQGIVPAGYVRRLAH [V51G]	0.146 ± 0.099
EQRVMALYDFQARSPREVTMKKGDVLTLLSSINKDWWKVEAADHQGIVPAHYVRRLAH [V51H]	0.216 ± 0.26
